{
  "source": "patent US20050031645",
  "about": "“Vaccine compositions” (Advanced Microbial Solutions Corporation, published 2005)",
  "target": "T1, DtxR (Corynebacterium diphtheriae, UniProt H2I233 SEQ:1-226)",
  "T1 sequence": "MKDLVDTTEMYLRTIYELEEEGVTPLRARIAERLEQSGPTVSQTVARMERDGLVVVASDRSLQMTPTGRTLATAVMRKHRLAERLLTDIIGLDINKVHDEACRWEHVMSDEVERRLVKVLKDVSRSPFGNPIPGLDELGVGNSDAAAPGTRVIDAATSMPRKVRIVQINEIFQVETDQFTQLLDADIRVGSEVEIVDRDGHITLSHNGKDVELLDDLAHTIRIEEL",
  "experiment": "EMSA; competed by unlabeled tox DNA, not by nonspecific DNA; 10 mM Tris-OAc pH 7.4, 50 mM KCl, 1 mM EDTA, calf thymus DNA",
  "conditions": "chain copies: 2 (inferred); label: 32P end",
  "data": [
    {"binder": "toxO (tox operator) 100 bp fragment (dsDNA) DNA 1: ATAATTAGGATAGCTTTACCTAATTAT DNA 2: ATAATTAGGTAAAGCTATCCTAATTAT", "values": [
      {"measurement": "binding result", "result": "binds"}
    ]}
  ]
}
